Assay [1] has as its target T1, IL-8RB expressed on lentivirally transduced HEK 293T cells (UniProt P25025 1-360, limits assumed).
T1 construct: whole, on cells; also called IL-8R^+ cells; IL-6Rα^-/IL-8R^+ HEK 293T cells
T1 sequence (looked up): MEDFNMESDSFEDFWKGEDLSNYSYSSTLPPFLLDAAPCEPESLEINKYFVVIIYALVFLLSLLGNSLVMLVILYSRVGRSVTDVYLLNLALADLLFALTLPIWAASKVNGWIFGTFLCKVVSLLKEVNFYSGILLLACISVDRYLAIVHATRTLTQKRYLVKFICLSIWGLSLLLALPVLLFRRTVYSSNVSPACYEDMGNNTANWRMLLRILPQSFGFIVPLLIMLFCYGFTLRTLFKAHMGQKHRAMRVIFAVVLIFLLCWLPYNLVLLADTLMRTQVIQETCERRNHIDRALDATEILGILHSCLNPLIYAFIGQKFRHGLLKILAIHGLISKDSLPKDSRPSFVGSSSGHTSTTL
Briefly: competition with 400 nM His-tagged IL-8 on IL-6Rα-/IL-8R+ HEK 293T cells, flow cytometry. The protocol:
IL-6Rα⁺/IL-8R⁻ and IL-6Rα⁻/IL-8R⁺ HEK 293T cells were cultured as previously described, and were trypsinized, resuspended in PBSA, and aliquoted into 96-well plates (2×10⁵ cells per well). IL-6Rα⁺/IL-8R⁻ 293T cells were incubated with titrations of various monoclonal or bispecific antibodies in the presence of saturating concentration of biotinylated IL-6 (100 nM) (Acro Biosystem, cat #: IL6-H8218-25UG) for 2 hr at 4° C. with rotation. Cells were then washed and incubated with 1:200 dilution of Alexa Fluor 647-conjugated streptavidin (Fisher Scientific, cat #: S21374) in PBSA for 15 min at 4° C. After a final wash, cells were resuspended in PBSA and analyzed on a CytoFLEX flow cytometer (Beckman Coulter). Curves were fitted to a first-order logistic model and IC₅₀ values were calculated using GraphPad Prism data analysis software. Mean fluorescence intensity (MFI) of unstimulated cells was subtracted. Similarly, IL-6Rα⁻/IL-8R⁺ 293T cells were incubated with titrations of various monoclonal or bispecific antibodies with saturating concentration of His-tagged IL-8 (400 nM) (Sino Biological, cat #: 10098-H08Y-100) for 2 hr at 4° C. with rotation. […] After a final wash, cells were resuspended in PBSA and analyzed on a CytoFLEX flow cytometer (Beckman Coulter). Curves were fitted to a first-order logistic model and IC₅₀ values were calculated using GraphPad Prism data analysis software. […]

The target of assay [2] is T2, IL-6Rα expressed on lentivirally transduced HEK 293T cells (UniProt P08887 20-468, limits assumed).
T2 construct: whole, on cells; also called IL-6Rα^+ cells; IL-6Rα^+/IL-8R^- HEK 293T cells
T2 sequence (looked up): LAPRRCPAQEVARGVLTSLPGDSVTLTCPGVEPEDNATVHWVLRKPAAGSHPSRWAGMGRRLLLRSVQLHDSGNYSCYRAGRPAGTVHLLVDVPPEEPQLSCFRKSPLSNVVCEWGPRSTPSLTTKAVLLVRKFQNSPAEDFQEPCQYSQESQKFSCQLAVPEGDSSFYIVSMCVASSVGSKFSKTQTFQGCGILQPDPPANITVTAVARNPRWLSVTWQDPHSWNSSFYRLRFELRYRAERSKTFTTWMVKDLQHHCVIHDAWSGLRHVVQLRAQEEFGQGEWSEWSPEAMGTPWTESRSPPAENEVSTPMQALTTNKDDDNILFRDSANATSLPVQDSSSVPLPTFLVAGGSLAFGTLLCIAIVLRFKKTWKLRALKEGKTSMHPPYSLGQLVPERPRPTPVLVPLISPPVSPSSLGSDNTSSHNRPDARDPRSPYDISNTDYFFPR
The assay can be described thus: flow cytometry titration on IL-6Rα+/IL-8R- HEK 293T cells; IL-6Rα+/IL-8R- 293T cells (FIG. 7A). The protocol:
(§1) HEK 293T cells were cultured in Dulbecco's modified Eagle's medium (DMEM, Mediatech) supplemented with 10% (Hyclone), 2 mM L-glutamine and 100 U/mL penicillin-streptomycin (Gibco). For surface binding assays, IL-6Rα⁺/IL-8R⁻, IL-6Rα⁻/IL-8R⁺, IL-6Rα⁺/IL-8R⁺, and […] HEK 293T cells were trypsinized for detachment, resuspended in PBSA, and then aliquoted into 96-well plates (1×10⁵ cells per well). Cells were incubated with titrations of various monoclonal or bispecific antibodies for 2 hr at 4° C. with rotation. Cells were then washed and incubated with a 1:50 dilution of fluorescein isothiocyanate (FITC)-conjugated anti-human IgG1 antibody (Sigma-Aldrich, Clone 8c/6-39) in PBSA for 15 min at 4° C. After a final wash, cells were resuspended in PBSA and analyzed on a CytoFLEX flow cytometer (Beckman Coulter). Binding isotherms were fitted to a first-order logistic model and KD values were calculated using GraphPad Prism data analysis software. Mean fluorescence intensity (MFI) of unstimulated cells was subtracted. […]
(§2) To determine whether engineered bispecific binding agents BS1 and BS2 specifically engage target antigens in a physiologically relevant context, antibody binding to IL-6Rα⁺/IL-8R⁻, IL-6Rα⁻/IL-8R⁺, IL-6Rα⁺/IL-8R⁺, and IL-6Rα⁻/IL-8R⁻ lentivirally transduced HEK 293T cells was measured via flow cytometry. […]

For assay [3], the target named is T1, IL-8RB expressed on lentivirally …. Briefly: flow cytometry titration on IL-6Rα-/IL-8R+ HEK 293T cells; IL-6Rα-/IL-8R+ 293T cells (FIG. 7B). The protocol: as §1, §2

B1: BS2 bispecific antibody (scFv-IgG fusion: 10H2 IgG with tocilizumab scFv on the light chains) (bispecific antibody)
heavy: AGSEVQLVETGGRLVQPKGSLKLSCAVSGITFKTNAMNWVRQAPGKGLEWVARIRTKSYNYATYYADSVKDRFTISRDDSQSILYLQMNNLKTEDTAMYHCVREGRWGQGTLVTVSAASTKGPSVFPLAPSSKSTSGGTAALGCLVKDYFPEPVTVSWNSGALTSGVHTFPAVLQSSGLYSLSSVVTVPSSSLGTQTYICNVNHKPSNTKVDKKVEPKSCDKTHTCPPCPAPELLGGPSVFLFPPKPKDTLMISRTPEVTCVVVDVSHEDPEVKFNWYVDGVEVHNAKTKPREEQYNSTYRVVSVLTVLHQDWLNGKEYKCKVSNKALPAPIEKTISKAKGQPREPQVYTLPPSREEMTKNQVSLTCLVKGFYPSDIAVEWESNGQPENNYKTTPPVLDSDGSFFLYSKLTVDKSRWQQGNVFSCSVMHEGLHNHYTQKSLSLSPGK
light: AGSQAVVTQESALTTSPGETVTLTCRSSTGAVTTSNYANWVQEKPDHLFTGLIGGTNNRPPGVPARFSGSLIGDKAALTITGAQIEDEAIYFCALWYSNHLVFGGGTKLTVLRTVAAPSVFIFPPSDEQLKSGTASVVCLLNNFYPREAKVQWKVDNALQSGNSQESVTEQDSKDSTYSLSSTLTLSKADYEKHKVYACEVTHQGLSSPVTKSFNRGECGGGGSGGGGSEVQLQESGPGLVRPSQTLSLTCTVSGYSITSDHAWSWVRQPPGRGLEWIGYISYSGITTYNPSLKSRVTMLRDTSKNQFSLRLSSVTAADTAVYYCARSLARTTAMDYWGQGSLVTVSSGGGGSGGGGSGGGGSDIQMTQSPSSLSASVGDRVTITCRASQDISSYLNWYQQKPGKAPKLLIYYTSRLHSGVPSRFSGSGSGTDFTFTISSLQPEDIATYYCQQGNTLPYTFGQGTKVEIK
notes: Human IgG1-based
Turning to B1, in assay [1], the IC50 worked out at 0.022 µM. For the same molecule, the values for the Kd in assay [2] and in assay [3] were 0.019 µM and 0.0035 µM, respectively.

The record behind these values is patent US20220251222A1 (Johns Hopkins, published 2022).
